Consider 1 molecule from paper PMC3458543.

The target of this data set is T1, His-Six1-HD (Mus musculus, UniProt Q62231 110-201).
T1 sequence: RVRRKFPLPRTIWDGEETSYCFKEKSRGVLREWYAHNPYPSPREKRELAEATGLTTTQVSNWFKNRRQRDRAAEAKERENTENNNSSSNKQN
As to the kind of experiment: EMSA. In general terms: A gel shift assay detects complexes by their altered migration in electrophoresis.

B1: Myog_mut34 (dsDNA)
DNA 1: GTTAGAGGGGGTATCAGGTTTGTGTGGCGTTGGC
DNA 2: GCCAACGCCACACAAACCTGATACCCCCTCTAAC
Regarding B1, the binding result is listed as “binds”.
